Positions count from the first letter of the chain named.

Sequences and labels used below:
B1: mAb006c (antibody, V domains shown)
VH: EVQLQQSGPELVKPGASLKMSCKASGYTFPDYNIHWVKQSHGKSLEWIGYINPNNGGTTYNQKFKGKATLTVSKSSSTAYMELRSLTSEDSAVYSCARRGYGSSYAMDYWAQGTSVTVSS
VL: DVLMTQSPLSLPVSLGDQASISCRSSHIIVHTNGNTYLEWYLQKPGQSPKLLIYKVSNRFSGVPDRFSGSGSGTDFTLKISRVEAEDLGVYYCFQGSRVPYTFGGGTKLEIK
notes: Human-mouse chimeric
B2: mAb007c (antibody, V domains shown)
VH: B1 VH with L18V, P30T, I34M, T59S, S73N, E89D, S95Y, S104G, A111G
VL: B1 VL with S7T, H27Q, I28S, K44N, S57F, R98L, V99F
notes: Human-mouse chimeric
B3: mAb009c (antibody, V domains shown)
VH: B1 VH with M20L, G57N, T59N, K65E, E89D, Y109F, A111G
VL: B1 VL with S7T, D17N
notes: Human-mouse chimeric
B4: Hu005-44-MMAE (antibody, human IgG1, DAR about 4.12, V domains shown)
VH: EVQLVESGGGLVKPGGSLRLSCAASGFTFNSYAMSWVRQTPGKGLEWVATISDAGSYTYYPDNEKGRFTISRDNAKNSLYLQMNSLRAEDTAIYYCVRGGYYYNLYAMDYWGQGTLVTVSS
VL: DIVLTQSPDSLAVSLGERATINCKASQSVSFPGTSLMHWYQQKPGQQPKLLIYRASNLEAGVPDRFSGSGSRTDFTLTISSLQAEDVAVYYCQQSREYPWTFGGGTKVEIK
modifications: vcMMAE on cysteines after TCEP reduction, positions not given
notes: Antibody-drug conjugate of Hu005-44 (human IgG1, Kappa) with vcMMAE
B5: Hu005-46-MMAE (antibody, human IgG1, DAR about 4.07, V domains shown)
VH: B4 VH with G44R
VL: B4 VL
modifications: vcMMAE on cysteines after TCEP reduction, positions not given
notes: Antibody-drug conjugate of Hu005-46 (human IgG1, Kappa) with vcMMAE
B6: Hu005-45 (antibody, V domains shown)
VH: B4 VH with G42E
VL: B4 VL
notes: Humanized
B7: mAb007 (antibody, IgG2b, V domains shown)
VH: B1 VH with L18V, P30T, I34M, T59S, S73N, E89D, S95Y, S104G, A111G
VL: B1 VL with S7T, H27Q, I28S, K44N, S57F, R98L, V99F
notes: Mouse monoclonal antibody, IgG2b/k
B8: mAb006 (antibody, IgG2b, V domains shown)
VH: B1 VH
VL: B1 VL
notes: as for B7
B9: mAb001 (antibody, IgG2b, V domains shown)
VH: EVRLQQSGPVLVKPGASVKMSCKASGYTFTDYNLHWVKQSHRQSLEWIGYINPNHDGTSYNQKFQGKATLTVDRSSSTAYMEFRSLTSEDSAVYYCARRVRTGTGLDDWGQGTTLTVSS
VL: B1 VL with I28N, D75Y, K79T, V99F
notes: as for B7
B10: mAb008 (antibody, IgG2b, V domains shown)
VH: B1 VH with L18V, G26E, P30T, I34M, S73N, E89D, S95Y, S104G, A111G, T114A
VL: B1 VL with M4L, S7T, Q18R, R24T, H27Q, I28S, K44N, R98L, V99F
notes: as for B7
B11: mAb001c_v1 (antibody, IgG1, V domains shown)
VH: B9 VH with G57A
VL: B1 VL with I28N, G34A, D75Y, K79T, V99F
notes: Chimeric mutant in hIgG1,k vector; the entries already hold the site-directed changes; also called human-mouse chimeric antibody mutant of mAb001c; site-directed mutant of mAb001c
B12: mAb009 (antibody, IgG2b, V domains shown)
VH: B1 VH with M20L, G57N, T59N, K65E, E89D, Y109F, A111G
VL: B1 VL with S7T, D17N
notes: as for B7
B13: mAb003c (antibody, V domains shown)
VH: EVQLVESGGGLVKPGGSLKLSCAASGFTFSSYAMSWVRQTPEKRLEWVATISDGGSYTYYPDSVKGRFTISRDNAKNNLYLQMSHLKSEDTDMYYCVRGGYYYNLYAMDYWGQGTSVTVSS
VL: DIVLTQSPASLAVSLGQRAIISCKASQSVSFAGTSLMHWYQQKPGQQPKLLIYRASNLEAGVPTRFSGSGSRADFTLNIHPVEEDDAATYYCQQSGEYPWTFGGGTKLEIK
notes: Human-mouse chimeric
B14: mAb005 (antibody, IgG2b, V domains shown)
VH: B13 VH with S30N, S63N, V64E, D92A, M93I
VL: B13 VL with A32P, A73T, A87T, G96R, K107Q
notes: as for B7
B15: mAb003 (antibody, IgG2c, V domains shown)
VH: B13 VH
VL: B13 VL
notes: Mouse monoclonal antibody, IgG2c/k
B16: mAb005c_v1 (antibody, IgG1, V domains shown)
VH: B13 VH with S30N, G54A, S63N, V64E, D92A, M93I
VL: B13 VL with A32P, A73T, A87T, G96R, K107Q
notes: Chimeric mutant in hIgG1,k vector; the VH entry already holds the site-directed change; also called human-mouse chimeric antibody mutant of mAb005c; site-directed mutant of mAb005c
B17: mAb004 (antibody, IgG2b, V domains shown)
VH: EVQLVESGGGLVQPKGSLKLSCAASGFTFNTYAMHWVRQAPGKGLEWVARIRSKSSNFATYYADSVRDRFTISRDDSQSMLYLQMNNLKTEDTAMYYCVRGYGPSYFSLDYWGQGTSVTVSS
VL: DVVMTQTPLSLPVSLGDQASISCRSSQSLVHSNGNTYLHWYLQKPGQSPKLLIYKVSNRFSGVPDRFSGSGSGTDFTLKINRVEAEDLGVYFCSQSTHAIYTFGGGTKLEIK
notes: as for B7
B18: mAb001c-vcMMAE (antibody, human IgG1, DAR about 3.81, V domains shown)
VH: B9 VH
VL: B1 VL with I28N, D75Y, K79T, V99F
modifications: vcMMAE on cysteines after TCEP reduction, positions not given

T4 sequence (Q01973 30-472 limits assumed): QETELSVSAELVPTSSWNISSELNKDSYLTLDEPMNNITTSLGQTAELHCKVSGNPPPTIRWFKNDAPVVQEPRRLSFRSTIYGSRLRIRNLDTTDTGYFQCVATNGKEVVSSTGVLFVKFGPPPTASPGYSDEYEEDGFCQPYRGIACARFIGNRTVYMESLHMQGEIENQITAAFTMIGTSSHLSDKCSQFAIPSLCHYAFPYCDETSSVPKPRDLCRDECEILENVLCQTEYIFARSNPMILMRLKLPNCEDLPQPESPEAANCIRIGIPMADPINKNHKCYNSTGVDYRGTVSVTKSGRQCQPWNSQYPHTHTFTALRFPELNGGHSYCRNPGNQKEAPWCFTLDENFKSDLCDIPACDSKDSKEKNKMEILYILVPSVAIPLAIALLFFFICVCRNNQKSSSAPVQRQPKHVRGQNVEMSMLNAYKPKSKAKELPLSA
T1 sequence (Q01973 other isoform, or with tags, fused parts or gaps limits assumed): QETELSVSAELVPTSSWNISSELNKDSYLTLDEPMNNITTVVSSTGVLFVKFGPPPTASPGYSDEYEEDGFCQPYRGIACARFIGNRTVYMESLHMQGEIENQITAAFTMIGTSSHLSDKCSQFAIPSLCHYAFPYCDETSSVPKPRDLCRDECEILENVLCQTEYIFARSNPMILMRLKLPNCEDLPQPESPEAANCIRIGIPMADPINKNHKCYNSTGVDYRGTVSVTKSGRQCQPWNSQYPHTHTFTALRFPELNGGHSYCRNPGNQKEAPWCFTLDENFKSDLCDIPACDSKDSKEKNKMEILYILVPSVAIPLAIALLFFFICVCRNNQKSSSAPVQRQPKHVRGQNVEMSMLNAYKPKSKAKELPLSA

The first test addresses T1, ROR1 extracellular segment with Ig-like domain removed on CHO cells (human, UniProt Q01973 30-472, limits assumed).
T1 construct: Transfected into CHO cells; also called CHO-ROR1 (with Ig-like domain removed)
Put plainly: FACS, CHO-ROR1 (with Ig-like domain removed) cells. A general note: In flow cytometry, cells or beads pass a laser one at a time.
A word on the EC50: it is the concentration at which the effect is half-maximal. B1: it took 0.37 nM to reach a half-maximal effect (EC50).
On the same count and under the same terms, the same measure for B2: 0.36 nM; for B3: 0.45 nM.

A further test deals with T2, human ROR1 on the surface of tumor cells (human, UniProt Q01973 30-937).
T2 construct: whole, on cells; also called ROR1 on the cell surface; tumor cell ROR1
T2 sequence (Q01973 30-937): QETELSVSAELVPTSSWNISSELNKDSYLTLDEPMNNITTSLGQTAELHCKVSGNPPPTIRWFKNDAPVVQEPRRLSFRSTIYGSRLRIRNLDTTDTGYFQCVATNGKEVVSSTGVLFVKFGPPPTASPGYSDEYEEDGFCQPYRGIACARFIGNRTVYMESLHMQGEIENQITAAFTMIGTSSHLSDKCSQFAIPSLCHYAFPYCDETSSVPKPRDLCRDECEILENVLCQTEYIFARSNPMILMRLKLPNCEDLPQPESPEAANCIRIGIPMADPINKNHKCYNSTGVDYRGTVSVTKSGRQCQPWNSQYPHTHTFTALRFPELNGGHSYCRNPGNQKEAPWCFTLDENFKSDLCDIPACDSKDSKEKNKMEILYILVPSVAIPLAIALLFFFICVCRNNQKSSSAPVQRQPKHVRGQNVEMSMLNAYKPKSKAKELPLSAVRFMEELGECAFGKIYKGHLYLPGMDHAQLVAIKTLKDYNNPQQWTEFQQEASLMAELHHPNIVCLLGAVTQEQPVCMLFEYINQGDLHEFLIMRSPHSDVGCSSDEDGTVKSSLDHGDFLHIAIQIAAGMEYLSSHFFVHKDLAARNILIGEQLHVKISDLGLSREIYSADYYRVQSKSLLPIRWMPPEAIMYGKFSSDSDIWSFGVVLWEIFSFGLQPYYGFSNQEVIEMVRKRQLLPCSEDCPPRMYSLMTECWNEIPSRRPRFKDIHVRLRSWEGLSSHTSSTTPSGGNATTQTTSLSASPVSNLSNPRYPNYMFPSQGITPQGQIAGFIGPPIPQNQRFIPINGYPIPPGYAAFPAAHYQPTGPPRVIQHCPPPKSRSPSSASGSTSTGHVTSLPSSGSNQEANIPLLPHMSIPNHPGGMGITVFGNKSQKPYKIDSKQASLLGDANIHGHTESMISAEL
Put plainly: FACS, MDA-MB-231 cells.
Consider B4, for which the binding result was “binds”.
B5: the binding result is given as “binds”.
For the molecule B6, the binding result is recorded as “binds”.
With B7, the half-maximal effective concentration (EC50) is 0.15 nM.
With B8, the midpoint of the response, the EC50, lay at 0.19 nM.
As for B1, the response was half-maximal at 0.4 nM (EC50).
The molecule B9 showed an EC50 of 0.073 nM.
Take B2: the response was half-maximal at 0.25 nM (EC50). This EC50 is about 3.4-fold higher than that of the molecule before.
On the same count and under the same terms, for B10 the value was 0.11 nM; for B3, 0.33 nM.
Still for that read-out and setting: for B11 the value was 0.073 nM; for B12, 0.16 nM; for B13, 1.1 nM.
With B14, a half-maximal effect (EC50) was put at 0.16 nM. This EC50 lies about 6.9-fold lower than the previous one.
In turn, B15 had an EC50 of 0.45 nM.
The same measure, in the same setting: the same measure for B16: 0.067 nM; for B17: 0.15 nM.

In another test the target is T3, Extracellular domain of human ROR1 protein (ROR1-ECD) (human, UniProt Q01973 30-403).
T3 construct: Expressed in HEK293T cells; also called human ROR1-ECD; purified human ROR1 protein extracellular segment
T3 sequence (Q01973 other isoform, or with tags, fused parts or gaps): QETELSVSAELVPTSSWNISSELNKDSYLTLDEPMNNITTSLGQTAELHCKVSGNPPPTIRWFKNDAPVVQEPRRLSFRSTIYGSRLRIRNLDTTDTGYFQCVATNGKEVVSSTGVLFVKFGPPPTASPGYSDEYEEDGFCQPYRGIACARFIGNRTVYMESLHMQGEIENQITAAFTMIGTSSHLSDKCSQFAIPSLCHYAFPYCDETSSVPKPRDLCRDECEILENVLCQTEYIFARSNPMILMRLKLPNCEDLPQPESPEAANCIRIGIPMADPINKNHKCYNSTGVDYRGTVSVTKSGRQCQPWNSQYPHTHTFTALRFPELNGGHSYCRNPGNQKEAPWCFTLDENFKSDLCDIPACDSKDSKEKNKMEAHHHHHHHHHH
Put plainly: ELISA, purified ROR1-ECD. (In an ELISA, binding on a coated surface is turned into a signal by an enzyme label.)
As to B7, the EC50 stood at 0.066 nM.
The same measure, in the same setting: for B8 the value was 0.059 nM; for B9, 0.049 nM.
As to B10, the EC50 is 0.053 nM.
The molecule B12 yielded an EC50 of 0.062 nM.
Same read-out and setting: for B14 the value was 0.043 nM; for B15, 0.023 nM; for B17, 0.038 nM.

Another test has as its target T4, ROR1 extracellular segment sequence (including transmembrane) on CHO cells (human, UniProt Q01973 30-472).
T4 construct: Cloned into pCDNA3.1 and transfected into CHO cells; also called CHO-ROR1 (extracellular segment); CHO-ROR1
Put plainly: FACS, CHO-ROR1 (extracellular segment) cells.
As to B1, a half-maximal effect (EC50) was put at 0.71 nM.
For the molecule B2, the midpoint of the response, the EC50, lay at 0.54 nM. The EC50 values of the last two molecules are within 1.5-fold of each other.
Same read-out and setting: the same measure for B3: 0.79 nM; for B13: 1.47 nM.

A further test deals with T5, ROR1 extracellular segment with Frizzled domain removed on CHO cells (human, UniProt Q01973 30-472, limits assumed).
T5 construct: Transfected into CHO cells; also called CHO-ROR1 (with Frizzled domain removed)
T5 sequence (Q01973 other isoform, or with tags, fused parts or gaps limits assumed): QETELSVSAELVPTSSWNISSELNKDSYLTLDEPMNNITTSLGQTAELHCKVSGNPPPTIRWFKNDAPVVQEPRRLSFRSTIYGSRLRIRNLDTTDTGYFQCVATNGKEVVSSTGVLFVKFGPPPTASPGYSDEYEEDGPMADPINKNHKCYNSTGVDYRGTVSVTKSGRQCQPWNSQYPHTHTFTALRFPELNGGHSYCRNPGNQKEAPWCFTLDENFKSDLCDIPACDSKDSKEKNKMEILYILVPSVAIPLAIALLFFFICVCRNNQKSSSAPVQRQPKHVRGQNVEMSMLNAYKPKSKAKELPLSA
Put plainly: FACS, CHO-ROR1 (with Frizzled domain removed) cells.
For the molecule B1, the EC50 amounted to 1.64 nM.
Molecule B2 came in with an EC50 of 1.25 nM.
For the molecule B3, a half-maximal response (EC50) required 1.68 nM. The EC50 values of the last two molecules are within 1.5-fold of each other.
In turn, B13 returned an EC50 of 1.78 nM.

A further test deals with T2, human ROR1 on the surface of tumor cells. Put plainly: FACS, NCI-H226 cells.
Take B1: the EC50 was 0.28 nM.
Molecule B2 had an EC50 of 0.28 nM. That is a sub-nanomolar value.
On the same count and under the same terms, for B3 the value was 0.25 nM; for B13, 0.76 nM.

A further test deals with T4, ROR1 extracellular segment sequence …. The test can be described thus: FACS, ROR1 transferred onto CHO cell surface (summing up of Example 9).
As to B1, the EC50 is under 2 nM.
The molecule B2 came in with an EC50 of under 2 nM.
Same read-out and setting: the same measure for B3: under 2 nM; for B13: under 2 nM.

For another test, the target named is T2, human ROR1 on the surface of tumor cells. Put plainly: cell-based or functional assay.
B18: the “in vitro anti-proliferative activity IC50, HCC827 cells (CCK8)” value was under 10 nM; the “in vitro anti-proliferative activity IC50, HCC1187 cells (CCK8)” value was under 10 nM; the “in vitro anti-proliferative activity IC50, HT-29 cells (CCK8)” value was under 10 nM; the “in vitro anti-proliferative activity IC50, MCF-7 cells (CCK8)” value is over 100 nM. Further, the “in vitro anti-proliferative activity IC50, MDA-MB-231 cells (CCK8)” value is under 10 nM; the “in vitro anti-proliferative activity IC50, NCI-H446 cells (CCK8)” value is under 10 nM; the “in vitro anti-proliferative activity IC50, NCI-N87 cells (CCK8)” value was under 10 nM.

For a further test, the target named is T3, Extracellular domain of human ROR1 …. The test can be described thus: ELISA, plate-coated ROR1-ECD.
Turning to B4, the binding result is recorded as “binds”.
For the molecule B5, the binding result is “binds”.
The same measure, in the same setting: the same measure for B6: “binds”.
B1 showed an EC50 of 0.009 nM.
Same read-out and setting: the same measure for B2: 0.012 nM; for B3: 0.017 nM.
Still for that read-out and setting: the same measure for B11: 0.028 nM.
Turning to B13, the EC50 was determined as 0.013 nM.
On the same count and under the same terms, for B16 the value was 0.046 nM.

In another test the target is T6, ROR1 extracellular segment with Kringle domain removed on CHO cells (human, UniProt Q01973 30-472, limits assumed).
T6 construct: Transfected into CHO cells; also called CHO-ROR1 (with Kringle domain removed)
T6 sequence (Q01973 other isoform, or with tags, fused parts or gaps limits assumed): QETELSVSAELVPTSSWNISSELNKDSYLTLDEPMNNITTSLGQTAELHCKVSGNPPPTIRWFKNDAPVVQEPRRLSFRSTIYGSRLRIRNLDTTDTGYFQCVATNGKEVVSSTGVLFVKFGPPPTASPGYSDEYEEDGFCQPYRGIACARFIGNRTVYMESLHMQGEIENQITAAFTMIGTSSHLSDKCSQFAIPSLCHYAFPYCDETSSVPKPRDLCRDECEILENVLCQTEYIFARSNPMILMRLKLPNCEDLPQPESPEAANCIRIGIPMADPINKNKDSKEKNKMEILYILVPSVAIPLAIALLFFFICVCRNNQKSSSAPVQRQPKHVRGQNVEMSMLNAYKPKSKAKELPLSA
The test can be described thus: FACS, CHO-ROR1 (with Kringle domain removed) cells.
For B1, the response was half-maximal at 1.59 nM (EC50).
The same measure, in the same setting: for B2 the value was 1.03 nM; for B3, 1.62 nM.
On the same count and under the same terms, the same measure for B13: 1.74 nM.

The values are drawn from EP4585616A1, “ANTIBODY CAPABLE OF SPECIFICALLY BINDING TO ROR1, […] THEREOF, AND PREPARATION METHOD THEREFOR AND USE THEREOF” (Hefei Institutes of Physical Science, Chinese Academy of …, priority 2022, dated 2024).
